Among the data in patent US20180142007A1 (published 2018) are Kd values, retold here.

Assay [1] concerns the target T1, misdisordered truncated tau 151-391/4R (UniProt P10636 468-708). Briefly: SPR.
Assay [2] addresses T1, misdisordered truncated tau 151-391/4R. Briefly: SPR. This is another data set of the same source.

Like-named read-outs stand apart in the source and are kept apart here.

T1 sequence (P10636 468-708): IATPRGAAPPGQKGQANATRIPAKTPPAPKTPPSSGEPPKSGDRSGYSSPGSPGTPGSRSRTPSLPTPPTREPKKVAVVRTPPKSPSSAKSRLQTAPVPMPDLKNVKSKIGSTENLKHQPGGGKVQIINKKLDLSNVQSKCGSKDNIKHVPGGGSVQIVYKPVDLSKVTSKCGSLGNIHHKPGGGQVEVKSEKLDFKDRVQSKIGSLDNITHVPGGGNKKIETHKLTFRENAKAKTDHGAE

B1: AX016, humanized DC8E8 RHD/RKB (isotype not stated where tested) (antibody)
VH: QVQLVQSGAEVKKPGSSVKVSCKASGYTFSDYVISWVRQAPGQGLEWMGEIFPRSGSTYYNEKFKGRVTITADKSTSTAYMELSSLRSEDTAVYYCARDYYGTSFAMDYWGQGTLVTVSS
light: DIVMSQSPLSLPVTPGEPASISCKSSQSLLNSRTRKNYLAWYLQKPGQSPQLLIYWASTRESGVPDRFTGSGSGTDFTLKISRVEAEDVGVYYCKQSFYLRTFGQGTKVEIKRTVAAPSVFIFPPSDEQLKSGTASVVCLLNNFYPREAKVQWKVDNALQSGNSQESVTEQDSKDSTYSLSSTLTLSKADYEKHKVYACEVTHQGLSSPVTKSFNRGEC
Consider B1, for which the Kd in assay [1] and in assay [2] was 9.39 nM throughout.
